From patent US9284543B2, “Neutral active soluble truncated PH20 polypeptides and uses thereof” (Halozyme, Inc., priority 2008, dated 2016)

Assays:
[1] = Microtiter hyaluronidase activity assay with biotinylated-hyaluronic acid; format: biochemical; conditions: 72 hour post transfection supernatant
[2] = tested on: CHO-S cells; assay: PI-PLC treatment of expressing cells, Western blot of media and cells; format: cell-based, Chinese Hamster; conditions: cells incubated with PI-PLC for 2 hours
Outline: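 CHO-S cells transiently expressing rHuPH20 or C-terminal truncation mutants were treated with PI-PLC (0.5 units/well, or 3.0 units/dish in serum/detergent-free medium) for 2 h at 37 °C after 48–72 h expression. Untreated and treated media and cell extracts were analysed separately by Western blot for PH20.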

[3] = Triton X-114 partition assay; format: physicochemical; conditions: partition into aqueous phase of Triton X-114 at 37° C.
Description: Solubility of a hyaluronidase can be determined by any method known to one of the skill in the art. One method for determining solubility is by detergent partitioning. […] For example, the solubility of the PH20 polypeptides described herein is assessed as described in Example 4. Membrane-anchored hyaluronidases, such as lipid-anchored hyaluronidases, including GPI-anchored hyaluronidases, will partition into the detergent-rich phase, but will partition into the detergent-poor or aqueous phase following treatment with Phospholipase C. Phospholipase C is an enzyme that cleaves the […] found in GPI-anchored proteins. Treatment with PLC will cause release of GPI-linked proteins from the outer cell membrane.
The samples were heated to 37° C. for 3 minutes to induce phase separation and centrifuged for 3 min at 4000 g at room temperature. Aqueous and detergent phases were removed for SDS-PAGE analysis and Western blotting. Rabbit anti-PH20 IgG (0.5 μg/mL) was used as the primary antibody and HRP-conjugated goat anti-Rabbit IgG (0.1 ng/mL, Cat#DC03L, EMD) was used as the secondary antibody. Full length human PH20, which partitions strongly into the detergent phase, was used as a control.

[4] = tested on: CHO-S cells; assay: Western blot analysis of PH20 expression in media and cells after transient expression; format: cell-based, Chinese Hamster; conditions: media versus cells
Outline: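 CHO-S cells were transiently transfected with mutant PH20-HZ24 plasmids using GeneJuice and expressed for 48-72 h at 37 °C, 5% CO2. Media and cells were harvested separately, with PI-PLC treatment used to release GPI-anchored protein. Non-reduced samples were blotted with rabbit anti-PH20 (0.5 μg/mL), and a band near 66 kDa was scored as PH20.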

Molecule | pH 5.5 Activity ([1]; Table 6) [Units/ml] | pH 7.4 Activity ([1]; Table 6) [Units/ml] | pH 5.5 Activity ([1]; Table 6A) [Units/ml] | pH 7.4 Activity ([1]; Table 6A) [Units/ml] | Expressed in Media Following Addition of PI-PLC [2] | Soluble [3] | Expressed in Media [4]
SPAM1-FIVS: C-terminally truncated human PH20, precursor 497 aa (SEQ ID NO:8), mature 462 aa (SEQ ID NO:60) (protein, listed as Homo sapiens, HuPH20 precursor 1-497; esHuPH20 36-497) chain 1: MGVLKFKHIFFRSFVKSSGVSQIVFTFLLIPCCLTLNFRAPPVIPNVPFLWAWNAPSEFCLGKFDEPLDMSLFSFIGSPRINATGQGVTIFYVDRLGYYPYIDSITGVTVNGGIPQKISLQDHLDKAKKDITFYMPVDNLGMAVIDWEEWRPTWARNWKPKDVYKNRSIELVQQQNVQLSLTEATEKAKQEFEKAGKDFLVETIKLGKLLRPNHLWGYYLFPDCYNHHYKKPGYNGSCFNVEIKRNDDLSWLWNESTALYPSIYLNTQQSPVAATLYVRNRVREAIRVSKIPDAKSPLPVFAYTRIVFTDQVLKFLSQDELVYTFGETVALGASGIVIWGTLSIMRSMKSCLLLDNYMETILNPYIINVTLAAKMCSQVLCQEQGVCIRKNWNSSDYLHLNPDNFAIQLEKGGKFTVRGKPTLEDLEQFSEKFYCSCYSTLSCKEKADVKDTDAVDVCIADGVCIDAFLKPPMETEEPQIFYNASPSTLSATMFIVS chain 2: LNFRAPPVIPNVPFLWAWNAPSEFCLGKFDEPLDMSLFSFIGSPRINATGQGVTIFYVDRLGYYPYIDSITGVTVNGGIPQKISLQDHLDKAKKDITFYMPVDNLGMAVIDWEEWRPTWARNWKPKDVYKNRSIELVQQQNVQLSLTEATEKAKQEFEKAGKDFLVETIKLGKLLRPNHLWGYYLFPDCYNHHYKKPGYNGSCFNVEIKRNDDLSWLWNESTALYPSIYLNTQQSPVAATLYVRNRVREAIRVSKIPDAKSPLPVFAYTRIVFTDQVLKFLSQDELVYTFGETVALGASGIVIWGTLSIMRSMKSCLLLDNYMETILNPYIINVTLAAKMCSQVLCQEQGVCIRKNWNSSDYLHLNPDNFAIQLEKGGKFTVRGKPTLEDLEQFSEKFYCSCYSTLSCKEKADVKDTDAVDVCIADGVCIDAFLKPPMETEEPQIFYNASPSTLSATMFIVS | 0.216 | 0.1755 | 0.162 | 0.365 | Initially in media | YES | YES
SPAM1-TMFI: C-terminally truncated human PH20, precursor 495 aa (SEQ ID NO:9), mature 460 aa (SEQ ID NO:61) (protein, listed as Homo sapiens, HuPH20 precursor 1-495; esHuPH20 36-495) chain 1: MGVLKFKHIFFRSFVKSSGVSQIVFTFLLIPCCLTLNFRAPPVIPNVPFLWAWNAPSEFCLGKFDEPLDMSLFSFIGSPRINATGQGVTIFYVDRLGYYPYIDSITGVTVNGGIPQKISLQDHLDKAKKDITFYMPVDNLGMAVIDWEEWRPTWARNWKPKDVYKNRSIELVQQQNVQLSLTEATEKAKQEFEKAGKDFLVETIKLGKLLRPNHLWGYYLFPDCYNHHYKKPGYNGSCFNVEIKRNDDLSWLWNESTALYPSIYLNTQQSPVAATLYVRNRVREAIRVSKIPDAKSPLPVFAYTRIVFTDQVLKFLSQDELVYTFGETVALGASGIVIWGTLSIMRSMKSCLLLDNYMETILNPYIINVTLAAKMCSQVLCQEQGVCIRKNWNSSDYLHLNPDNFAIQLEKGGKFTVRGKPTLEDLEQFSEKFYCSCYSTLSCKEKADVKDTDAVDVCIADGVCIDAFLKPPMETEEPQIFYNASPSTLSATMFI chain 2: LNFRAPPVIPNVPFLWAWNAPSEFCLGKFDEPLDMSLFSFIGSPRINATGQGVTIFYVDRLGYYPYIDSITGVTVNGGIPQKISLQDHLDKAKKDITFYMPVDNLGMAVIDWEEWRPTWARNWKPKDVYKNRSIELVQQQNVQLSLTEATEKAKQEFEKAGKDFLVETIKLGKLLRPNHLWGYYLFPDCYNHHYKKPGYNGSCFNVEIKRNDDLSWLWNESTALYPSIYLNTQQSPVAATLYVRNRVREAIRVSKIPDAKSPLPVFAYTRIVFTDQVLKFLSQDELVYTFGETVALGASGIVIWGTLSIMRSMKSCLLLDNYMETILNPYIINVTLAAKMCSQVLCQEQGVCIRKNWNSSDYLHLNPDNFAIQLEKGGKFTVRGKPTLEDLEQFSEKFYCSCYSTLSCKEKADVKDTDAVDVCIADGVCIDAFLKPPMETEEPQIFYNASPSTLSATMFI | 0.612 | 0.45 | 0.770 | 0.689 | Initially in media | YES | YES
